Data on 2 molecules can be found in PMC10127692, “SARS-CoV-2 SUD2 and Nsp5 Conspire to Boost Apoptosis of Respiratory Epithelial Cells via an Augmented Interaction with the G-Quadruplex of BclII”.

Series [1] has as its target SUD2core (SUD2-N+M of Nsp3);Nsp5 (SARS-CoV-2;SARS-CoV-2, UniProt P0DTC1;P0DTC1 1230-1493;3264-3569, |). Description: pull-down; 100 mM K+; Nsp5 added. The settings on record: protein: recombinant;recombinant; tags: His;GST; label: 5'-biotin (BLI, pulldown); Cy5 (EMSA); G4, folded in 100 mM K+.
The target in series [2] is T1, SUD2core (SUD2-N+M of Nsp3) (SARS-CoV-2, UniProt P0DTC1 1230-1493). Description: BLI; 100 mM K+. Conditions: protein: recombinant; tags: His; label: 5'-biotin (BLI, pulldown); Cy5 (EMSA); G4, folded in 100 mM K+.
For series [3], the target named is T1, SUD2core (SUD2-N+M of Nsp3). Description: pull-down; 100 mM K+; positive control. Conditions: protein: recombinant; tags: His; label: 5'-biotin; G4.

B1: Bcl2G4WT (G4 folded) (structured_DNA)
DNA: GGGCGCGGGAGGAATTGGGCGGG
By Kd is commonly meant the concentration at which binding is half-saturated. In the case of B1, the binding signal in series [1] is 6.3 fold SUD2core retained vs without Nsp5. In addition, the Kd in series [2] came to 85 nM.

B2: MYCG4 (structured_DNA)
DNA: TTGAGGGTGGGTAGGGTGGGTAA
Take B2: the binding result in series [3] is “binds”.
